Measured values as given in publication PMC3896444, “Structural Basis of Thermal Stability of the Tungsten Cofactor Synthesis Protein MoaB from Pyrococcus furiosus” (PLoS ONE, 2014).
“And” between values parts separate entries of the source, which are not always exact repeats. Identical values can stand only once.

How the values were obtained:
[1] = biological target: PfuMoaB-H3 variant (α3-helix exchanged against the corresponding helix of E. coli MogA) (Pyrococcus furiosus) (UniProt Q8U3T3); assay: cross-linking; 0.5 mg/ml protein, 1.5 mM BS3, 20 mM sodium phosphate pH 8.0, 0.2 M NaCl, 30 min; SDS-PAGE
[2] = biological target: PfuMoaB-H3 variant (α3-helix exchanged against the corresponding helix of E. coli MogA) (Pyrococcus furiosus) (UniProt Q8U3T3); assay: SEC; analytical Superdex 200 10/300, 0.1 M Tris pH 8.0, 0.2 M NaCl, 0.5 ml/min, 4°C; 5-10 nmol of Ni-NTA purified protein; masses by standard proteins
[3] = biological target: PfuMoaB-H3 variant (α3-helix exchanged against the corresponding helix of E. coli MogA) (Pyrococcus furiosus) (UniProt Q8U3T3); assay: cross-linking; 0.5 mg/ml protein, 2 mM EDC, 0.1 M MES pH 6.0, 0.5 M NaCl, 3 h; SDS-PAGE; trimer bands analysed by LC-MS/MS
[4] = biological target: the molecule itself; assay: crystal structure; space group P3(1)21, three chains in the asymmetric unit, hexamer by the two-fold crystallographic axis; crystals from 0.1 MES pH 6.0, 40% PEG 400, 5% PEG 3000, 20°C; 2.5 Å
[5] = biological target: the molecule itself; assay: cross-linking; 0.5 mg/ml protein, 2 mM EDC, 0.1 M MES pH 6.0, 0.5 M NaCl, 3 h; SDS-PAGE; trimer bands analysed by LC-MS/MS
[6] = biological target: the molecule itself; assay: SEC; preparative Superdex 200 16/60 pg, Ni-NTA purified protein; fractions analysed by SDS-PAGE
[7] = biological target: the molecule itself; assay: SEC; analytical Superdex 200 10/300, 0.1 M Tris pH 8.0, 0.2 M NaCl, 0.5 ml/min, 4°C; 5-10 nmol of Ni-NTA purified protein; masses by standard proteins

Molecule: PfuMoaB-H3 variant (α3-helix exchanged against the corresponding helix of E. coli MogA) (from UniProt Q8U3T3 1-169) (enzyme)
- stoichiometry N [1]: 3 and 2
- stoichiometry N [2]: 3 and 2
- stoichiometry N [3]: 2 and 3

B1: Pyrococcus furiosus MPT-adenylyl-transferase MoaB, wild type (enzyme)
chain: MGVEEHKKEAPKTFKFGVITVSDKGAKGEREDKSGPLIIEELSKLGEHVYYKIVPDDKIEVLIALFEAIKSGADVVVTTGGTGITRRDITIESIKPLFDKELSFGEVFRAKSYEEVGYATVLTRATAGIIRGQERIVVVFSLPGSVNAVKTGLEIIKSEVFHILKHARE
notes: MoaB, MPT-adenylyl-transferase of Pyrococcus furiosus; residues from 1 on are in the construct (1-9/10/11 disordered in the crystal), Glu169 is named; predicted mass with tag 19,971.95 Da; also called PfuMoaB; PfuMoaB-WT; source: E. coli BL21(DE3), purified (Ni-NTA); not shown: His-tag, N-terminal, kept
- stoichiometry N [4]: 6
- stoichiometry N [5]: 3 and 2

B2: PfuMoaB I59R/I63R/F66R variant (enzyme, Pyrococcus furiosus)
chain: MGVEEHKKEAPKTFKFGVITVSDKGAKGEREDKSGPLIIEELSKLGEHVYYKIVPDDKREVLRALREAIKSGADVVVTTGGTGITRRDITIESIKPLFDKELSFGEVFRAKSYEEVGYATVLTRATAGIIRGQERIVVVFSLPGSVNAVKTGLEIIKSEVFHILKHARE
notes: MoaB of Pyrococcus furiosus with three arginines in the α3-helix; Increased tendency to precipitation was observed
- binding result [6]: binds

B3: G-domain of A. thaliana Cnx1 (domain or fragment, Arabidopsis thaliana)
chain: VPGPEYKVAILTVSDTVSAGAGPDRSGPRAVSVVDSSSEKLGGAKVVATAVVPDEVERIKDILQKWSDVDEMDLILTLGGTGFTPRDVTPEATKKVIERETPGLLFVMMQESLKITPFAMLSRSAAGIRGSTLIINMPGNPNAVAECMEALLPALKHALKQIKGDKR
notes: G domain of the molybdenum cofactor biosynthesis protein Cnx1 of Arabidopsis thaliana; also called AthCnx1G; Cnx1G; source: E. coli, purified (Ni-NTA)
- stoichiometry N [7]: 3

B4: E. coli MoaB (natural protein, Escherichia coli, UniProt P0AEZ9 1-170, looked up)
chain: MSQVSTEFIPTRIAILTVSNRRGEEDDTSGHYLRDSAQEAGHHVVDKAIVKENRYAIRAQVSAWIASDDVQVVLITGGTGLTEGDQAPEALLPLFDREVEGFGEVFRMLSFEEIGTSTLQSRAVAGVANKTLIFAMPGSTKACRTAWENIIAPQLDARTRPCNFHPHLKK
notes: MoaB of Escherichia coli; also called EcoMoaB; source: E. coli, purified (Ni-NTA)
- stoichiometry N [7]: 6

B5: E. coli MogA (enzyme, Escherichia coli, UniProt P0AF03 1-195, looked up)
chain: MNTLRIGLVSISDRASSGVYQDKGIPALEEWLTSALTTPFELETRLIPDEQAIIEQTLCELVDEMSCHLVLTTGGTGPARRDVTPDATLAVADREMPGFGEQMRQISLHFVPTAILSRQVGVIRKQALILNLPGQPKSIKETLEGVKDAEGNVVVHGIFASVPYCIQLLEGPYVETAPEVVAAFRPKSARRDVSE
notes: MogA, MPT-adenylyl-transferase of Escherichia coli; also called EcoMogA; MogA (E. coli); source: E. coli, purified (Ni-NTA); not shown: His-tag, N-terminal, kept
- stoichiometry N [7]: 3
